Measured values published in paper PMC4448153.

biological target: T1, RamB-His (Corynebacterium glutamicum ATCC 13032?) (UniProt Q8NTD8); test: EMSA; details: EMSA: 100 mM Tris/HCl pH 7.5, 20% glycerol, 100 mM KCl, 20 mM MgCl2, 1 mM EDTA, 30 min room temperature, DNA 5-61 nM; pull-down bead equilibration: 20 mM …
T1 sequence: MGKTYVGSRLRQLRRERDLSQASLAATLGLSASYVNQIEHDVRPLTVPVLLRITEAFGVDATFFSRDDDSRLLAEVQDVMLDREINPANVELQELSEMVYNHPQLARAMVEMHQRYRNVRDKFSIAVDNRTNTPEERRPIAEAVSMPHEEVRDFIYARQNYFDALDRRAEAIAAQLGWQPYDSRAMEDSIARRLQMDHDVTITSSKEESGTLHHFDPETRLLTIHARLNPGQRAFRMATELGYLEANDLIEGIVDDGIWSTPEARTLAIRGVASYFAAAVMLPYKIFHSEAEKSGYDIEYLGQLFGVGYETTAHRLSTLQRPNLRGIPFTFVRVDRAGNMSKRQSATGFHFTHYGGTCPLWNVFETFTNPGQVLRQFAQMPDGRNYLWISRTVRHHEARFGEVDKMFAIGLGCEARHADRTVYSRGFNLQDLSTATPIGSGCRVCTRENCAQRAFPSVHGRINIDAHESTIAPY

| Sequence | binding |
| --- | --- |
| CCCGATGTGGGTAGTGGCAGAATTTGCCGAACGATAGCCCAGAGTTCATAAGTTGTTAACCAAATTAGCCTGAGTTAGTCATTTCAAGGTCTTAGGTTTTTAAGTCGTGAGCAATCCGGAGGGAAACCG (double strand) [RcFc] | binds |
| CGTCTAGATAAGACCTTGAAATGACTAACTCAGGCTAATTTGGTTAACAACTTATGAACTCTGGGCTATCGTTCGGCAAATTCTGCCACTACCCACATCTCACTCGTAACATTTGGAGACTCTAATCACAAAAATCGGCAATTTTCGACCCCTGCGGAACGAAAATCACCGATTCTTATTATTCTCACAGGTTTTTAGCAAGTCTCTTTTTTACTCGAGGGG (double strand) [RF4] | binds more weakly |
| CGTCTAGATGCGGACTGCTGGGAAGATGCACCTTCAGCAACGAGCTGACCGGTAACACCGGAAAGGCCCTCAATGGATGCAGCATCGGAAGAACCGGTGGAAGCTGCAGATGAGGAGGTGGAATCAGACTCATTGGAGTCGGAGCAAGCTACAAGAGCGAAGGAGCCTGCAGTAACTGCGCCCACAAGGGCGATGGAGCGCTTAAGAGTGAGGTTCACGGGGAAGCCTTTCCGGTTTAAGTGAAGACATCGTCTGAGCAGATCCTGTAGGCGGGCCTCGAGGGG (double strand) [R3F0] | no binding |
